Results published in patent US20250262210A1 (TRUSTEES OF COLUMBIA UNIVERSITY IN THE CITY OF NEW YORK, published 2025).

How the values were obtained:
Experiment in all cases: IP/MS, LZTR1 R810W-FLAG, U87
[1] = molecular target: KDM5C (human, UniProt P41229 1-1560, limits assumed)
In short: (§1)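 Extracted peptides in 3% acetonitrile/0.1% formic acid ran on a 50 cm C18 column into an Orbitrap Fusion, with MaxQuant identification and spectral counting.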

[2] = molecular target: T1, USP47 (human, UniProt Q96K76 1-1375, limits assumed)
T1 sequence (looked up): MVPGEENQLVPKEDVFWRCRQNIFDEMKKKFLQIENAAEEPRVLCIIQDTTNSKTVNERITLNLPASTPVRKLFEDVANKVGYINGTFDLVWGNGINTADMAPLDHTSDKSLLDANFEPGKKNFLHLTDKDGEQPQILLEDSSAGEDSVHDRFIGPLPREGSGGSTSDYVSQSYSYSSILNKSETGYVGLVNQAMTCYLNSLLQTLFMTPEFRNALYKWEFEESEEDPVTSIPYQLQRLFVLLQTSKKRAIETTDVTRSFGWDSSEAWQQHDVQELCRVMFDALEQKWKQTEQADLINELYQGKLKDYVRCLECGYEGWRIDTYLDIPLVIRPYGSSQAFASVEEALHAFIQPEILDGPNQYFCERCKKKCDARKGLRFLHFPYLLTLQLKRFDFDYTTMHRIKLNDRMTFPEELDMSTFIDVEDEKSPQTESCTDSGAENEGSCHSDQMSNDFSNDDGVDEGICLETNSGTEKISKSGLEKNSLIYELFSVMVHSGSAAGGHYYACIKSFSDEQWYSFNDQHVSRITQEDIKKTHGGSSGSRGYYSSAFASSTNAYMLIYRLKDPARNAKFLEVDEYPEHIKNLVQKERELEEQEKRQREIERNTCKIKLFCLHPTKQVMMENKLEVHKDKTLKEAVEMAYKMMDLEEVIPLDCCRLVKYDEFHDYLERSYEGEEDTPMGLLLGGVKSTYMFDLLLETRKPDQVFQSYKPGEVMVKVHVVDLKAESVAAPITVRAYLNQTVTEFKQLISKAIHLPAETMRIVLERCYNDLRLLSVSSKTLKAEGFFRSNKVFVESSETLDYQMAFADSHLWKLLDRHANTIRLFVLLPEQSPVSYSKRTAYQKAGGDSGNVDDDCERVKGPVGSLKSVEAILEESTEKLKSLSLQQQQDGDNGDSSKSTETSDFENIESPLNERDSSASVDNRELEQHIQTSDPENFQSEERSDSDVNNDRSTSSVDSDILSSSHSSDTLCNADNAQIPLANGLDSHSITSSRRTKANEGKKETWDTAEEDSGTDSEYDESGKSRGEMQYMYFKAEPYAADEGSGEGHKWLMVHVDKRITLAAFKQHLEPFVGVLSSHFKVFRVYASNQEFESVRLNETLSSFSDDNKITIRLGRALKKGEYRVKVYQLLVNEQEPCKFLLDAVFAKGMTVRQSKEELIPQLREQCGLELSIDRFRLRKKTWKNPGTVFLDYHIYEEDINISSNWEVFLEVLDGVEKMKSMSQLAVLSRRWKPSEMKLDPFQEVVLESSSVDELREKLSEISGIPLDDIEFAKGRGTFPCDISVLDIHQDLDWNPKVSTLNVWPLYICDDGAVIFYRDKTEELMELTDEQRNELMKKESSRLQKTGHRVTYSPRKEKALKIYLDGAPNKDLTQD
In short: as §1

[3] = molecular target: TTC27 (human, UniProt Q6P3X3 1-843)
In short: as §1

[4] = molecular target: BUB1 (human, UniProt O43683 1-1085, limits assumed)
Chain of BUB1 (O43683 whole entry): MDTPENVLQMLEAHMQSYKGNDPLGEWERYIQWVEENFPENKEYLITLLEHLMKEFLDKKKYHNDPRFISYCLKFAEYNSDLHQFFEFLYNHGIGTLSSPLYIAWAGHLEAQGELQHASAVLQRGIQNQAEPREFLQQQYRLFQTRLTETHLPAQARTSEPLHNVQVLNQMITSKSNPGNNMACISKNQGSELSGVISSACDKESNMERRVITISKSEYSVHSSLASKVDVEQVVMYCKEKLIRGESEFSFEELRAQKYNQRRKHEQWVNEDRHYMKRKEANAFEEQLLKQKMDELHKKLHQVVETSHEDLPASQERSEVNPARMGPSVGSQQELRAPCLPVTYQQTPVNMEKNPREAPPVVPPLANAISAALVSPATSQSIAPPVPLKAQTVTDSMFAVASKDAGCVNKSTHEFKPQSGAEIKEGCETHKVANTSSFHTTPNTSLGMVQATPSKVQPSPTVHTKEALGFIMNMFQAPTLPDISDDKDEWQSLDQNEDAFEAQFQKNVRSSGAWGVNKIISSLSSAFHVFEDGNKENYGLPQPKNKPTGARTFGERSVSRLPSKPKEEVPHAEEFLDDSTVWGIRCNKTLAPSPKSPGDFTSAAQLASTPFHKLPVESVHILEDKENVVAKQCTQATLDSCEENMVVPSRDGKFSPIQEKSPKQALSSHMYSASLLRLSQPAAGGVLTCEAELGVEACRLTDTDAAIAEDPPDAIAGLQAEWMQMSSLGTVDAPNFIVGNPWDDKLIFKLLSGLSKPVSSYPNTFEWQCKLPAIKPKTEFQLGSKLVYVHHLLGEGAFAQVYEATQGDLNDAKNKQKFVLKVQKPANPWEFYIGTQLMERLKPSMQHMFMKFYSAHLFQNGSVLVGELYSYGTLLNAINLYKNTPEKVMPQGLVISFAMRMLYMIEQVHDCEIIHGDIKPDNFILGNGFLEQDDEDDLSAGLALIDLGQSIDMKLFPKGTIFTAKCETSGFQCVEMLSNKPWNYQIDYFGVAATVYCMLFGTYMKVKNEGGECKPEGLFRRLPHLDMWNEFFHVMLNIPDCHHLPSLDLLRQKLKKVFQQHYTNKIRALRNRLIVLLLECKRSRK
In short: as §1

Measured: binding result

Chain of KDM5C (P41229 whole entry, the tested form may be a part): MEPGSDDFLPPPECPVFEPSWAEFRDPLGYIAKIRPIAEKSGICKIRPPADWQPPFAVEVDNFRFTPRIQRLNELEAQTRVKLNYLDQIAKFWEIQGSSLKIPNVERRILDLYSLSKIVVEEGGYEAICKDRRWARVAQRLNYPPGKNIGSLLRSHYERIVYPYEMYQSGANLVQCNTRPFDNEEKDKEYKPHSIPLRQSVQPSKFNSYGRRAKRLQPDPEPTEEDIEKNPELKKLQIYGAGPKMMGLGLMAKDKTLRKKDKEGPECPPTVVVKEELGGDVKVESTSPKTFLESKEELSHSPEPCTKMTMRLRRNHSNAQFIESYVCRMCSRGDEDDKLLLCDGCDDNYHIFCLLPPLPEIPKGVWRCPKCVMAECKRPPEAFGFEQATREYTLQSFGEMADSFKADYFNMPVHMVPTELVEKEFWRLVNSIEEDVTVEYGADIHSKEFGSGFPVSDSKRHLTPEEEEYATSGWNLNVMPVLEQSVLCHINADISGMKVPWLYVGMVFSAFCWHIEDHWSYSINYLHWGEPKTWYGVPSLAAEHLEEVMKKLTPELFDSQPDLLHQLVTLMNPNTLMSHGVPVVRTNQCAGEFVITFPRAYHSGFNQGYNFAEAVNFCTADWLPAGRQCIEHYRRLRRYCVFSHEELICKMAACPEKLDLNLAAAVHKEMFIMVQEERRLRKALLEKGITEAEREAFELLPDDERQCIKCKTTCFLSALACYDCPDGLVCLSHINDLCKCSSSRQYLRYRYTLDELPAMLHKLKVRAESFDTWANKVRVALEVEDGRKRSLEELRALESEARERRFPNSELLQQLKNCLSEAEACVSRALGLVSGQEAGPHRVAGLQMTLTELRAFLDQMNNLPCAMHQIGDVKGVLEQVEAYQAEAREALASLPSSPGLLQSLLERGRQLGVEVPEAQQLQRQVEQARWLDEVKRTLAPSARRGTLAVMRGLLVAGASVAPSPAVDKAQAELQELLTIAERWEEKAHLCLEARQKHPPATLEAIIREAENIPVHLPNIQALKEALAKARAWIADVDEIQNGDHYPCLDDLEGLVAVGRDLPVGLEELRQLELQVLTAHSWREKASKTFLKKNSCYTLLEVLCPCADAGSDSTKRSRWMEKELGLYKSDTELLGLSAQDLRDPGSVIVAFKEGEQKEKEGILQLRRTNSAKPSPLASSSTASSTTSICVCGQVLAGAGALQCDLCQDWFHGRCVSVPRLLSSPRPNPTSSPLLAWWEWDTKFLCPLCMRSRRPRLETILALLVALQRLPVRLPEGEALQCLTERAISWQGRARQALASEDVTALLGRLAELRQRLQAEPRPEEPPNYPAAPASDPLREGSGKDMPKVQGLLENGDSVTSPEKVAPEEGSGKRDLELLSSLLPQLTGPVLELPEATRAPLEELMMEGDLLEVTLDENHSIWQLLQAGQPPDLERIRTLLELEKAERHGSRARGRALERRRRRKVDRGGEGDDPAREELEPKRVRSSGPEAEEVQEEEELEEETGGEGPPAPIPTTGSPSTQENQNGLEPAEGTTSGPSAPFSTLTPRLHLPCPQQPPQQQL

B1: LZTR1 R810W-FLAG (other, human, UniProt Q8N653 1-840, looked up)
chain: MAGPGSTGGQIGAAALAGGARSKVAPSVDFDHSCSDSVEYLTLNFGPFETVHRWRRLPPCDEFVGARRSKHTVVAYKDAIYVFGGDNGKTMLNDLLRFDVKDCSWCRAFTTGTPPAPRYHHSAVVYGSSMFVFGGYTGDIYSNSNLKNKNDLFEYKFATGQWTEWKIEGRLPVARSAHGATVYSDKLWIFAGYDGNARLNDMWTIGLQDRELTCWEEVAQSGEIPPSCCNFPVAVCRDKMFVFSGQSGAKITNNLFQFEFKDKTWTRIPTEHLLRGSPPPPQRRYGHTMVAFDRHLYVFGGAADNTLPNELHCYDVDFQTWEVVQPSSDSEVGGAEVPERACASEEVPTLTYEERVGFKKSRDVFGLDFGTTSAKQPTQPASELPSGRLFHAAAVISDAMYIFGGTVDNNIRSGEMYRFQFSCYPKCTLHEDYGRLWESRQFCDVEFVLGEKEECVQGHVAIVTARSRWLRRKITQARERLAQKLEQEAAPVPREAPGVAAGGARPPLLHVAIREAEARPFEVLMQFLYTDKIKYPRKGHVEDVLLIMDVYKLALSFQLCRLEQLCRQYIEASVDLQNVLVVCESAARLQLSQLKEHCLNFVVKESHFNQVIMMKEFERLSSPLIVEIVRRKQQPPPRTPLDQPVDIGTSLIQDMKAYLEGAGAEFCDITLLLDGHPRPAHKAILAARSSYFEAMFRSFMPEDGQVNISIGEMVPSRQAFESMLRYIYYGEVNMPPEDSLYLFAAPYYYGFYNNRLQAYCKQNLEMNVTVQNVLQILEAADKTQALDMKRHCLHIIVHQFTKVSKLPTLWSLSQQLLLDIIDSLASHISDKQCAELGADI
notes: Stably expressed in U87 cells by lentivirus; also called LZTR1-FLAG-R810W; LZTR1 RW; not shown: FLAG tag
binds: all assays above
